{"source": "patent US8822171", "target": "recombinant human tau, largest isoform (2N4R)"}
{"protein": "casein kinase 1 (CK1) (protein) MELRVGNRYRLGRKIGSGSFGDIYLGTDIAAGEEVAIKLECVKTKHPQLHIESKIYKMMQGGVGIPTIRWCGAEGDYNVMVMELLGPSLEDLFNFCSRKFSLKTVLLLADQMISRIEYIHSKNFIHRDVKPDNFLMGLGKKGNLVYIIDFGLAKKYRDARTHQHIPYRENKNLTGTARYASINTHLGIEQSRRDDLESLGYVLMYFNLGSLPWQGLKAATKRQKYERISEKKMSTPIEVLCKGYPSEFATYLNFCRSLRFDDKPDYSYLRQLFRNLFHRQGFSYDYVFDWNMLKFGASRAADDAERERRDREERLRH", "values": [{"measurement": "New sites identified in recombinant tau (phosphorylated residues, numbered on 441-residue human tau)", "value": "(46/50), 113, 131, 149, 169, 184, 208, (210, 212), 214, 237, 238, 241, 258, 262, 263, 285, 289, 305, 341, 352, 356, 361, 373, 386, (412/413/414/416, 2 sites), 416, 433, 435"}, {"measurement": "in vitro phosphorylation of recombinant tau, sites identified by LC/MS/MS", "value": "CK1 found 28 new sites making a total of 30 sites in all."}]}
